These results are taken from publication PMC12538437, “Branched DNA processing by a thermostable CAS-Cas4 from Thermococcus onnurineus: Expanding biochemical landscape of nuclease activity”.

The data set addresses T1, TON_0321 (CAS-Cas4) (Thermococcus onnurineus NA1, UniProt B6YTB9 1-222).
T1 sequence: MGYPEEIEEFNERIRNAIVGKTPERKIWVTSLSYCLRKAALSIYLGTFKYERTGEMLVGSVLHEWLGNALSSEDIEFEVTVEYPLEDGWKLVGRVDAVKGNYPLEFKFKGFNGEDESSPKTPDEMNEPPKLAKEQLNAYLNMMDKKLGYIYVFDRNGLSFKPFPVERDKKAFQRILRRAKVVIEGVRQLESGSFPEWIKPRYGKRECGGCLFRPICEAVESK
In words: fluorescence anisotropy; 20 mM ZnSO4; 20 mM Tris-HCl pH 8.0, 100 mM NaCl, 0.5 mM DTT, 0.1 mg/ml BSA, 20 mM ZnSO4, 25 °C; 35 nM DNA (25 nM labeled), 0-1600 nM protein. To be noted: protein: recombinant; tags: N-terminal 6xHis (pET28a); label: 5' 6-FAM; single strand. In general terms: In fluorescence polarisation assays a small probe gives low polarisation when free and higher when bound to something large.

Regarding ATTCTACCAGTGCCTTGCTAGGACATCTTTGCCCACCTGC (ssDNA) [ssDNA (Y0-1F)], the binding result is on record as “binds”.
